Key:
[1] = molecular target: 人CD47抗原 CD47-FcLama (human CD47 antigen) (human, UniProt Q08722 19-139); experiment: BLI (Octet Red384), CD47-FcLama covalently on AR2G sensor, antibody as analyte (68.9, 34.4, 17.2 nM), 1:1 global fit, mean of three measurements
[2] = molecular target: T1, 食蟹猴CD47抗原 cynoCD47(ARCO), Cynomolgus/Rhesus CD47 protein, Fc Tag, cat. CD7-C5252 (cynomolgus monkey / rhesus monkey); experiment: BLI (Octet Red384), as in Example 3, cynoCD47-Fc on AR2G sensor, antibody as analyte, mean of three measurements
T1 construct: Commercial protein

[3] = molecular target: T2, 人PD-L1抗原 (human PD-L1 antigen) (human, UniProt Q9NZQ7 19-238, limits assumed); experiment: BLI (Octet Red384), as in Example 3, human PD-L1 antigen on AR2G sensor, antibody as analyte, mean of three measurements
T2 construct: also called 专有PD-L1抗原
T2 sequence (Q9NZQ7 19-238 limits assumed): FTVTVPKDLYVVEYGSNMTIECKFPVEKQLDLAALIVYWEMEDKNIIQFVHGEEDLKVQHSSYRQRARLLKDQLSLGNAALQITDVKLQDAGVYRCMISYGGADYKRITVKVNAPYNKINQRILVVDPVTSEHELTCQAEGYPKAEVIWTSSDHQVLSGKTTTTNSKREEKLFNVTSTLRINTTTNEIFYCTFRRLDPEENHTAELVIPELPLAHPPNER

Chain of 人CD47抗原 CD47-FcLama (human CD47 antigen) (Q08722 19-139): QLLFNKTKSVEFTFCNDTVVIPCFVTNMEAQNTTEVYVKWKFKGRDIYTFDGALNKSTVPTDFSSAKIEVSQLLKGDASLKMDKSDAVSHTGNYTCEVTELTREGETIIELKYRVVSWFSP

B1: 双特异性抗体09-001 (bispecific antibody 09-001, binds CD47 and PD-L1, common light chain) (bispecific antibody, human IgG1, lambda, L234A L235A)
heavy 1: not shown
light: QTVVTQEPSLSVSPGGTVTLTCGLSSGTVTAINYPGWYQQTPGQAPRTLIYNTNTRHSGVPDRFSGSISGNKAALTITGAQAEDEADYYCALYMGNGGHMFGGGTKLTVLGQPKAAPSVTLFPPSSEELQANKATLVCLISDFYPGAVTVAWKADSSPVKAGVETTTPSKQSNNKYAASSYLSLTPEQWKSHRSYSCQVTHEGSTVEKTVAPTECS
heavy 2: EVQLVESGGGVVRPGGSLRLSCAASGFTFDDYAMSWVRQAPGKGLEWVSDISWSGSNTNYADSVKGRFTISRDNAKNSLYLQMNSLRAEDTALYHCARAPLLLAMTFGVGSWGQGTLVTVSSASTKGPSVFPLAPSSKSTSGGTAALGCLVKDYFPEPVTVSWNSGALTSGVHTFPAVLQSSGLYSLSSVVTVPSSSLGTQTYICNVNHKPSNTKVDKKVEPKSCDGPGGTCPPCPAPEAAGGPSVFLFPPKPKDTLMISRTPEVTCVVVDVSHEDPEVKFNWYVDGVEVHNAKTKPREEQYNSTYRVVSVLTVLHQDWLNGKEYKCKVSNKALPAPIEKTISKAKGQPREPQVCTLPPSREEMTKNQVSLSCAVKGFYPSDIAVEWESNGQPENNYKTTPPVLDSDGSFFLVSKLTVDKSRWQQGNVFSCSVMHEALHNHYTQKSLSLSPGK
**Q.** For B1, which Kd [1] is on record?
**A.** The Kd was 82.5 nM.

**Q.** And the Kd [2]?
**A.** The Kd was 57 nM.

**Q.** And the Kd [3]?
**A.** Its Kd is 2.54 nM.

— CN117858904A (dated 2024)
